Results on eleven molecules are retold here after article PMC3567257 (Biochemistry, 2012).

No end group written: not given here. *: point of attachment. 5FAM = O=C1OC2(c3ccc(O)cc3Oc3cc(O)ccc32)c2ccc(C(=O)*)cc21

Sequences and labels used below:
B5: GST-JARID1A PHD3 (domain or fragment, UniProt P29375 1601-1660, looked up)
chain: EESDDENAVCAAQNCQRPCKDKVDWVQCDGGCDEWFHQVCVGVSPEMAENEDYICINCAK
B6: H3(1-14)K4me3K14fluo (peptide, UniProt P68431 2-15, looked up)
peptide: ARTKQTARKSTGGK
modifications: trimethyl-lysine at position 4; 5-carboxyfluorescein on lysine 14
B7: H3(1-14)K4unmodifiedK14fluo (peptide, UniProt P68431 2-15, looked up)
peptide: ARTKQTARKSTGGK(5FAM)

One assay addresses T1, H3(1-19)K9me3K19fluo (UniProt P68431 2-20, trimethyl-lysine at position 9; fluorescein on lysine 19 (K19fluo)).
T1 chain: ARTKQTARKSTGGKAPRKK
As to the kind of experiment: fluorescence polarisation.

In the assay “H3(1-14)K4me3K14fluo” the target is B6. As to the kind of experiment: fluorescence polarisation.
In assay [1] the target is T2, (HQ)5-HaloTag-JMJD2A double tudor domain (UniProt O75164 895-1011).
T2 sequence (looked up): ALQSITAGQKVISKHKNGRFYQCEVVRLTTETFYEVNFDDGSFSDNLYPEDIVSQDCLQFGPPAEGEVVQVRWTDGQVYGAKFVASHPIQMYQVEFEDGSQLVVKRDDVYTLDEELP
Put plainly: HaloTag plate binding assay.

In assay [2] the target is B7. Put plainly: fluorescence polarisation.
Assay [3] concerns the target T3, (HQ)5-HaloTag-JARID1A PHD3 (UniProt P29375 1601-1660).
T3 sequence (looked up): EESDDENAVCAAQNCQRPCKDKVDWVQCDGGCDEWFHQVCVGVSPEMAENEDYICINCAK
As to the kind of experiment: HaloTag plate binding assay.

Assay [4] deals with T3, (HQ)5-HaloTag-JARID1A PHD3. As to the kind of experiment: pull-down.
The next assay has as its target T4, GST-JARID1A PHD3 D1624N (UniProt P29375 1601-1660, D1624N).
T4 sequence (looked up): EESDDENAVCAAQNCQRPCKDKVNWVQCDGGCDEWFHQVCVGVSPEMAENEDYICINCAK
Put plainly: fluorescence polarisation.

The target of another assay is T5, GST-JARID1A PHD3 D1629N (UniProt P29375 1601-1660, D1629N).
T5 sequence (looked up): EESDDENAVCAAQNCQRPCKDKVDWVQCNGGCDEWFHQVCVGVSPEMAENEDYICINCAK
As to the kind of experiment: fluorescence polarisation.

Another assay concerns the target T6, GST-JARID1A PHD3 D1629A (UniProt P29375 1601-1660, D1629A).
T6 sequence (looked up): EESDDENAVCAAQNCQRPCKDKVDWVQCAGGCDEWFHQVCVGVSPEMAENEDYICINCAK
As to the kind of experiment: fluorescence polarisation.

In a further assay the target is T7, GST-JARID1A PHD3 D1624A (UniProt P29375 1601-1660, D1624A).
T7 sequence (looked up): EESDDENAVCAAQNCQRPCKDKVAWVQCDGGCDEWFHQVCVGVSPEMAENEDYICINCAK
As to the kind of experiment: fluorescence polarisation.

The target of the assay “GST-JARID1A PHD3” is B5. Put plainly: fluorescence polarisation.
A further assay deals with (HQ)5-HaloTag-BHC80 PHD (UniProt Q96BD5 486-543).
In a further assay the target is T8, (HQ)5-HaloTag-AIRE PHD1 (UniProt O43918 293-354).
T8 sequence (looked up): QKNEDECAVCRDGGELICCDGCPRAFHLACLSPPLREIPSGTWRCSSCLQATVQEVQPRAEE
Put plainly: HaloTag plate binding assay.

B1: GST-UHRF1 TTD (domain or fragment)
chain: MWDETELGLYKVNEYVDARDTNMGAWFEAQVVRVTRKAPSRDEPCSSTSRPALEEDVIYHVKYDDYPENGVVQMNSRDVRARARTIIKWQDLEVGQVVMLNYNPDNPKERGFWYDAEISRKRETRTARELYANVVLGDDSLNDCRIIFVDEVFKIERPGE
Take B1: in the assay with H3(1-19)K9me3K19fluo, the “protein concentration at 90% fraction bound” value was 18 µM.

B2: GST-JMJD2A DTD (domain or fragment, UniProt O75164 895-1011, looked up)
chain: ALQSITAGQKVISKHKNGRFYQCEVVRLTTETFYEVNFDDGSFSDNLYPEDIVSQDCLQFGPPAEGEVVQVRWTDGQVYGAKFVASHPIQMYQVEFEDGSQLVVKRDDVYTLDEELP
As to B2, the “protein concentration at 90% fraction bound” value with H3(1-14)K4me3K14fluo amounted to 4 µM. Regarding ARTKQTARKSTEW (Kme3 (trimethyl-lysine) at position 4; E(PEG-biotin) at position 12) [biotinylated histone H3 (1-11) peptide trimethylated at lysine 4], the binding result in assay [1] is “binds”.

B3: GST-BHC80 PHD (domain or fragment, UniProt Q96BD5 486-543, looked up)
chain: IHEDFCSVCRKSGQLLMCDTCSRVYHLDCLDPPLKTIPKGMWICPRCQDQMLKKEEAI
For B3, the “protein concentration at 90% fraction bound” value in [2] was 60 µM.

B4: GST-AIRE PHD1 (domain or fragment, UniProt O43918 293-354, looked up)
chain: QKNEDECAVCRDGGELICCDGCPRAFHLACLSPPLREIPSGTWRCSSCLQATVQEVQPRAEE
On to B4, for which the “protein concentration at 90% fraction bound” value in [2] stood at 4 µM. For ARTKQTARKSTW (Kme3 (trimethyl-lysine) at position 4) [unlabeled (no biotin) histone H3 (1-11) K4me3 peptide], the figures for the IC50 in assay [3] and in assay [4] were 2.97 ± 0.35 µM and 13.6 ± 4.5 µM, respectively. For the molecule B5, the “protein concentration at 90% fraction bound” value with H3(1-14)K4me3K14fluo worked out at 1 µM.

Turning to B6, the Kd came to 0.634 ± 0.08 µM with GST-JARID1A PHD3 D1624N; 3.81 ± 0.551 µM with GST-JARID1A PHD3 D1629N; 4.05 ± 0.691 µM with GST-JARID1A PHD3 D1629A; 1.15 ± 0.145 µM in the assay with GST-JARID1A PHD3 D1624A; 0.294 ± 0.046 µM with GST-JARID1A PHD3. In the assay with GST-JARID1A PHD3, B7 yielded a Kd of 9.35 ± 1.57 µM. As for ARTKQTARKSTEW (E(PEG-biotin) at position 12) [biotinylated histone H3 (1-11) peptide, unmethylated], in the assay with (HQ)5-HaloTag-BHC80 PHD, the equilibrium dissociation constant (Kd) was > 15 µM. Moreover, the binding result with (HQ)5-HaloTag-AIRE PHD1 is given as “binds”.

B8: GST-RAG2 PHD (domain or fragment, UniProt P21784 414-487, looked up)
chain: GYWITCCPTCDVDINTWVPFYSTELNKPAMIYCSHGDGHWVHAQCMDLEERTLIHLSEGSNKYYCNEHVQIARA
On to B8, for which the “protein concentration at 90% fraction bound” value in the assay with H3(1-14)K4me3K14fluo amounted to 25 µM.
